This experiment has as its target GST-BRCA1 (tandem BRCT) M1775R (UniProt P38398). Kind of experiment: pull-down.

B1: His-GIV-CT (aa 1660-1870) (domain or fragment)
chain: SETLESRHHKIKTGSPGSEVVTLQQFLEESNKLTSVQIKSSSQENLLDEVMKSLSVSSDFLGKDKPVSCGLARSVSGKTPGDFYDRRTTKPEFLRPGPRKTEDTYFISSAGKPTPGTQGKIKLVKESSLSRQSKDSNPYATLPRASSVISTAEGTTRRTSIHDFLTKDSRLPISVDSPPAAADSNTTAASNVDKVQESRNSKSRSREQQSS
For the molecule B1, the fold change of binding against BRCA1 (tandem BRCT) WT fell in the range of 3 to 5 fold.

The values above are taken from paper doi:10.1101/2021.07.21.452842.
